Results reported in publication PMC9701394, “Modified exosomal SIRPα variants alleviate white matter injury after intracerebral hemorrhage via microglia/macrophages” (Biomaterials Research, 2022).

Molecular target: T1, biotinylated CD47 (UniProt Q08722 19-141, biotin (by BirA ligase, on the Avi tag))
T1 construct: CD47, IgSF domain; the SPR methods say only 'biotinylated CD47'. 'Purified as described above' would imply a His tag and a cleaved GST; also called CD47 IgSF domain
Assay: SPR; biotinylated CD47 (Rmax ~150 RU) captured on Biacore SA sensor chip at 25 °C; serial dilutions of SIRPα in HBS-P buffer; regeneration with 2 mol/L MgCl2; Langmuir binding model, Biacore T200
Settings: both partners purified

T1 sequence (Q08722 19-141): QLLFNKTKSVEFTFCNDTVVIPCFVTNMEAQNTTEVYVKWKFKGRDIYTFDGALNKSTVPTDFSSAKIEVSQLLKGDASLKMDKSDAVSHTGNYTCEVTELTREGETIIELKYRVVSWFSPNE

B1: wild-type SIRPα (SIRPα WT), soluble monomer (domain or fragment, human, UniProt P78324 31-148, looked up)
chain: EEELQVIQPDKSVLVAAGETATLRCTATSLIPVGPIQWFRGAGPGRELIYNQKEGHFPRVTTVSDLTKRNNMDFSIRIGNITPADAGTYYCVKFRKGSPDDVEFKSGAGTELSVRAKP
notes: signal regulatory protein α (SIRPα), human, N-terminal V-set Ig domain; also called wild-type human SIRPα; SIRPα WT monomer; source: E. coli BL-21(DE3), purified (Ni-NTA; GST removed with HRV 3C protease); not shown: GST, N-terminal, cleaved
Kd: 365 nM
dissociation half-life (t1/2): 2.4 s
